Data published in publication PMC7765622, “The Cardioprotective PKA-Mediated Hsp20 Phosphorylation Modulates Protein Associations Regulating Cytoskeletal Dynamics” (International Journal of Molecular Sciences, 2020).
Substitutions are numbered along the chain they refer to. Names may count otherwise.

T1: GST-CFL2 (amino acids 1-55) (Homo sapiens (Human), UniProt Q9Y281)
T1 chain: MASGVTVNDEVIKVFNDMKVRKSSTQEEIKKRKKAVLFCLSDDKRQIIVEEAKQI

T2: GST-CFL2 (amino acids 1-166), non-phosphorylated (Homo sapiens (Human), UniProt Q9Y281)
T2 chain: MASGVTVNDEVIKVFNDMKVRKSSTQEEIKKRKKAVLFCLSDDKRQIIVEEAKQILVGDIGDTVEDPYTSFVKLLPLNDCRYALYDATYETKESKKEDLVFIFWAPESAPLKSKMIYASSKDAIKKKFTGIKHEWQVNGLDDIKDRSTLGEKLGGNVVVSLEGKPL

T3: MBP-14-3-3 (amino acids 1-247), full length 14-3-3 gamma (human, UniProt P61981 1-247)
T3 construct: 14-3-3 gamma, human, amino acids 1-247, cloned by RT-PCR on human muscle cDNA into pMALc2x; also called in vitro expressed 14-3-3; source: recombinant, expression as previously described [58]
T3 sequence (looked up): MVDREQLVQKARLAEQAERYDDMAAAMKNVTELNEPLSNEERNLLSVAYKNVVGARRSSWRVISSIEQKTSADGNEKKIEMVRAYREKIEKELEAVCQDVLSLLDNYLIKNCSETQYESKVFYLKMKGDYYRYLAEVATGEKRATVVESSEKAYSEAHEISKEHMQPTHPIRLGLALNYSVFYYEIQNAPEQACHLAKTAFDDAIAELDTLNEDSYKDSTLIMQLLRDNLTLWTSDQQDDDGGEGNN

B1: MBP-14-3-3 (amino acids 115-247) (domain or fragment, human, UniProt P61981 115-247, looked up)
chain: TQYESKVFYLKMKGDYYRYLAEVATGEKRATVVESSEKAYSEAHEISKEHMQPTHPIRLGLALNYSVFYYEIQNAPEQACHLAKTAFDDAIAELDTLNEDSYKDSTLIMQLLRDNLTLWTSDQQDDDGGEGNN
notes: 14-3-3 gamma, human, amino acids 115-247, in pMALc2x; also called MBP-14-3-3 C-terminal deletion construct; C-terminal fragment of 14-3-3; source: recombinant, expression as previously described [58]
B2: MBP-14-3-3 (amino acids 1-247), full length 14-3-3 gamma (protein)
chain: T3 sequence (looked up)
B3: GST-Hsp20 (amino acids 1-160), wild type, phosphorylated in vitro by PKA at Ser16 (natural protein, human, UniProt O14558 1-160, looked up)
chain: MEIPVPVQPSWLRRASAPLPGLSAPGRLFDQRFGEGLLEAELAALCPTTLAPYYLRAPSVALPVAQVPTDPGHFSVLLDVKHFSPEEIAVKVVGEHVEVHARHEERPDEHGFVAREFHRRYRLPPGVDPAAVTSALSPEGVLSIQAAPASAQAPPPAAAK
modifications: phosphoserine at 16 (PKA in vitro)
notes: Hsp20 (HspB6), amino acids 1-160, wild type; construct previously reported [16,53,57]; Same construct as m7, after PKA treatment; also called phosphorylated GST-Hsp20; GST-p-Hsp20; source: recombinant, purified on Glutathione Sepharose 4B; phosphorylated in vitro with PKA catalytic subunit (New England Biolabs), 30 °C, 1 h
B4: GST-Hsp20-S16D (natural protein, human, UniProt O14558 1-160, looked up)
chain: B3 chain with S16D
notes: Hsp20 (HspB6), amino acids 1-160, made by PCR mutagenesis on the WT Hsp20 GST-tagged plasmid; Phosphomimetic at Ser16; also called GST-p-Hsp20-S16D (after PKA treatment); source: recombinant, purified (Glutathione Sepharose 4B), eluted; used untreated or PKA-treated
B5: MBP-14-3-3 (amino acids 1-120) (protein)
chain: MVDREQLVQKARLAEQAERYDDMAAAMKNVTELNEPLSNEERNLLSVAYKNVVGARRSSWRVISSIEQKTSADGNEKKIEMVRAYREKIEKELEAVCQDVLSLLDNYLIKNCSETQYESK

Key:
[1] = biological target: B3; experiment: far-Western, overlay or dot blot; purified GST fusion proteins separated by SDS-PAGE and transferred to nitrocellulose; membranes incubated with MBP-14-3-3 fusion protein (or MBP as control); detection with anti-MBP; settings: both partners purified
[2] = biological target: T1, GST-CFL2 (amino acids 1-55); experiment: blot overlay
[3] = biological target: T2, GST-CFL2 (amino acids 1-166), …; experiment: blot overlay
[4] = biological target: T3, MBP-14-3-3 (amino acids 1-247), full …; experiment: pull-down; same samples as a4: eluted GST-Hsp20 proteins (PKA-treated or not) bound to MBP-14-3-3 on amylose resin, in the presence of myc-CFL2 HEK 293 lysate; blot with phospho-Hsp20 or GST antibody; settings: both partners purified

Binder	binding result [3]	binding result [4]	other results
B1			binding result [1]: binds
B2	binds		binding result [2]: binds
B3		binds	
B4		binds	
B5	binds		
